Literature values in PMC8239185.

How the values were obtained:
Glu286 = Glu286 (UniProt position 286, FFGHPEVYIIV); assay: kinetics; settings: enzyme during turnover
Glu212 = Glu212 (UniProt position 213, RTPDHEDTFFR); settings: ground state of the reaction centre (quinones oxidised)

Substance: Cytochrome c oxidase (aa3, A-type), subunit I (Rhodobacter sphaeroides (Cereibacter sphaeroides))
- pKa (Glu286): ≈10

Substance: Photosynthetic reaction centre (bRC), L subunit (Rhodobacter sphaeroides (Cereibacter sphaeroides))
- pKa (Glu212): ≈10
